Assay results reported in patent publication US20120121587A1 (Chugai, published 2012).

T1: Human recombinant AXL-FND1 (GST-FND1), from pET-41b(+) (human, UniProt P30530 225-331)
T1 construct: Expressed in E. coli, purified on Glutathione Sepharose; analyte in all Biacore measurements; GST put first by the usual layout of pET-41; not shown: GST-tag of vector pET-41b(+) (Novagen)
T1 sequence (looked up): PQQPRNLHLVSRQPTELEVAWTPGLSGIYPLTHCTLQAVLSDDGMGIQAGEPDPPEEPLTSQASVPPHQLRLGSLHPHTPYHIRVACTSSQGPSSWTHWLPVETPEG


Molecular target: T1, Human recombinant AXL-FND1 (GST-FND1), …
Assay: SPR (Biacore T100): antibody captured on Protein A, GST-FND1 as analyte
Description: Kinetic analyses of antigen-antibody reactions of humanized AXL antibodies were carried out using Biacore T100 (BIACORE). rec-Protein A (Zymed) (hereinafter, Protein A) was immobilized onto a sensor chip, various antibodies were bound to it, then an antigen as the analyte was flushed to measure the antibody-antigen interaction. Human recombinant AXL-FND1 (prepared in 2-2; hereinafter referred to as GST-FND1) prepared at various concentrations was used as the antigen. From the sensorgrams obtained through the measurements, kinetic parameters, namely binding rate constant kₐ (1/Ms) and dissociation rate constant kd (1/s), were calculated, and Kd (M) was calculated based on these values. Biacore T100 Evaluation Software (BIACORE) was used to calculate each of the parameters.
The sensor chips were produced by immobilizing approximately 3000 RU of Protein A onto CM5 (BIACORE) by amine coupling. Using the produced sensor chip, kinetic analyses were carried out on the interaction between the Protein A-bound antibodies and GST-FND1. HBS-EP+ was used as the running buffer, and the flow rate was set to 30 μL/min. Each antibody was prepared at 1 μg/mL using the running buffer, and was subjected to binding with Protein A for two minutes. GST-FND1 as the analyte was prepared at 0.5 and 2.0 μg/mL using HBS-EP+. Measurements were carried out by first binding the various humanized AXL antibodies, chimeric AXL antibodies, or mouse AXL antibodies of interest to Protein A, then applying an analyte solution to them for a two-minute interaction, and then switching to HBS-EP+ (BIACORE) for a two-minute measurement of the dissociation phase. After completion of measurement of the dissociation phase, 30 μL of 10 mM glycine-HCl (pH 2.0) was used for washing to regenerate the sensor chip. Such binding, dissociation, and regeneration were defined as one cycle of analysis. All experiments were performed at 25° C.
Affinity evaluation of each of the variants by Biacore was carried out by the method of Example 2.

Binder | Kd
H30/L0 (antibody, human IgG1, kappa) heavy: not shown light: DVVMTQSPLSLPVTLGQPASISCRSSQNIVHTNGNTYLEWYQQKPGKAPELLIYKVSNRFSGVPDRFSGSGSGTDFTLKISRVEAEDVGVYYCFQGSHIPFTFGQGTKLEIKRTVAAPSVFIFPPSDEQLKSGTASVVCLLNNFYPREAKVQWKVDNALQSGNSQESVTEQDSKDSTYSLSSTLTLSKADYEKHKVYACEVTHQGLSSPVTKSFNRGEC | 2.7 nM
H32/L0 (antibody, human IgG1, kappa) heavy: not shown light: DVVMTQSPLSLPVTLGQPASISCRSSQNIVHTNGNTYLEWYQQKPGKAPELLIYKVSNRFSGVPDRFSGSGSGTDFTLKISRVEAEDVGVYYCFQGSHIPFTFGQGTKLEIKRTVAAPSVFIFPPSDEQLKSGTASVVCLLNNFYPREAKVQWKVDNALQSGNSQESVTEQDSKDSTYSLSSTLTLSKADYEKHKVYACEVTHQGLSSPVTKSFNRGEC | 2.82 nM
H33/L0 (antibody, human IgG1, kappa) heavy: not shown light: DVVMTQSPLSLPVTLGQPASISCRSSQNIVHTNGNTYLEWYQQKPGKAPELLIYKVSNRFSGVPDRFSGSGSGTDFTLKISRVEAEDVGVYYCFQGSHIPFTFGQGTKLEIKRTVAAPSVFIFPPSDEQLKSGTASVVCLLNNFYPREAKVQWKVDNALQSGNSQESVTEQDSKDSTYSLSSTLTLSKADYEKHKVYACEVTHQGLSSPVTKSFNRGEC | 3.04 nM
H33/L11 (antibody, human IgG1, kappa) heavy: not shown light: DVVMTQSPLSLPVTLGQPASISCQSSQNIVHTNGNTYLEWYQQKPGKAPELLIYKVSNRFSGVPDRFSGSGSGTDFTLKISRVEAEDVGVYYCFQGSHIPFTFGQGTKVEIERTVAAPSVFIFPPSDEQLKSGTASVVCLLNNFYPREAKVQWKVDNALQSGNSQESVTEQDSKDSTYSLSSTLTLSKADYEKHKVYACEVTHQGLSSPVTKSFNRGEC | 3.06 nM
H32/L11 (antibody, human IgG1, kappa) heavy: not shown light: DVVMTQSPLSLPVTLGQPASISCQSSQNIVHTNGNTYLEWYQQKPGKAPELLIYKVSNRFSGVPDRFSGSGSGTDFTLKISRVEAEDVGVYYCFQGSHIPFTFGQGTKVEIERTVAAPSVFIFPPSDEQLKSGTASVVCLLNNFYPREAKVQWKVDNALQSGNSQESVTEQDSKDSTYSLSSTLTLSKADYEKHKVYACEVTHQGLSSPVTKSFNRGEC | 2.74 nM
H33/L13 (antibody, human IgG1, kappa, V domains shown) VH: QVTLKESGPVLVKPTETLTLTCTVSGFSLSSFGVDWVRQAPGQGLEWMGVIWGGGSTNYNEALQDRLTISKDNSKSQVVLTMTNMDPVDTATYYCAGEGSKYGAWFAYWGEGTLVTVSS VL: DVVMTQSPLSLPVTLGQPASISCQSSQNIVHTNGNTYLEWYQQKPGQAPELLIYKVSNRFSGVPDRFSGSGSGTDFTLKISRVEAEDVGVYYCFQGSHIPFTFGQGTKVEIER | 3.02 nM
H31/L0 (antibody, human IgG1, kappa) heavy: not shown light: DVVMTQSPLSLPVTLGQPASISCRSSQNIVHTNGNTYLEWYQQKPGKAPELLIYKVSNRFSGVPDRFSGSGSGTDFTLKISRVEAEDVGVYYCFQGSHIPFTFGQGTKLEIKRTVAAPSVFIFPPSDEQLKSGTASVVCLLNNFYPREAKVQWKVDNALQSGNSQESVTEQDSKDSTYSLSSTLTLSKADYEKHKVYACEVTHQGLSSPVTKSFNRGEC | 2.54 nM
H33/L12 (antibody, human IgG1, kappa) heavy: not shown light: DVVMTQSPLSLPVTLGQPASISCQSSQNIVHTNGNTYLEWYQQKPGEAPELLIYKVSNRFSGVPDRFSGSGSGTDFTLKISRVEAEDVGVYYCFQGSHIPFTFGQGTKVEIERTVAAPSVFIFPPSDEQLKSGTASVVCLLNNFYPREAKVQWKVDNALQSGNSQESVTEQDSKDSTYSLSSTLTLSKADYEKHKVYACEVTHQGLSSPVTKSFNRGEC | 3.06 nM
H35/L0 (antibody, human IgG1, kappa, V domains shown) VH: QVTLKESGPVLVKPTETLTLTCTVSGFSLSRFGVDWVRQAPGKGLEWMGVIWGGGSTNYNSALKSRLTISKDNSKSQVVLTMTNMDPVDTATYYCAGEGSKYGAWFAYWGQGTLVTVSS VL: DVVMTQSPLSLPVTLGQPASISCRSSQNIVHTNGNTYLEWYQQKPGKAPELLIYKVSNRFSGVPDRFSGSGSGTDFTLKISRVEAEDVGVYYCFQGSHIPFTFGQGTKLEIKR | 3.65 nM
H34/L0 (antibody, human IgG1, kappa, V domains shown) VH: QVTLKESGPVLVKPTETLTLTCTVSGFSLSKFGVDWVRQAPGKGLEWMGVIWGGGSTNYNSALKSRLTISKDNSKSQVVLTMTNMDPVDTATYYCAGEGSKYGAWFAYWGQGTLVTVSS VL: DVVMTQSPLSLPVTLGQPASISCRSSQNIVHTNGNTYLEWYQQKPGKAPELLIYKVSNRFSGVPDRFSGSGSGTDFTLKISRVEAEDVGVYYCFQGSHIPFTFGQGTKLEIKR | 5.94 nM
H32/L10 (antibody, human IgG1, kappa) heavy: not shown light: DVVMTQSPLSLPVTLGQPASISCRSSQNIVHTNGNTYLEWYQQKPGKAPELLIYKVSNRFSGVPDRFSGSGSGTDFTLKISRVEAEDVGVYYCFQGSHIPFTFGQGTKVEIERTVAAPSVFIFPPSDEQLKSGTASVVCLLNNFYPREAKVQWKVDNALQSGNSQESVTEQDSKDSTYSLSSTLTLSKADYEKHKVYACEVTHQGLSSPVTKSFNRGEC | 2.8 nM
H32/L12 (antibody, human IgG1, kappa) heavy: not shown light: DVVMTQSPLSLPVTLGQPASISCQSSQNIVHTNGNTYLEWYQQKPGEAPELLIYKVSNRFSGVPDRFSGSGSGTDFTLKISRVEAEDVGVYYCFQGSHIPFTFGQGTKVEIERTVAAPSVFIFPPSDEQLKSGTASVVCLLNNFYPREAKVQWKVDNALQSGNSQESVTEQDSKDSTYSLSSTLTLSKADYEKHKVYACEVTHQGLSSPVTKSFNRGEC | 2.64 nM
H32/L13 (antibody, human IgG1, kappa) heavy: not shown light: DVVMTQSPLSLPVTLGQPASISCQSSQNIVHTNGNTYLEWYQQKPGQAPELLIYKVSNRFSGVPDRFSGSGSGTDFTLKISRVEAEDVGVYYCFQGSHIPFTFGQGTKVEIERTVAAPSVFIFPPSDEQLKSGTASVVCLLNNFYPREAKVQWKVDNALQSGNSQESVTEQDSKDSTYSLSSTLTLSKADYEKHKVYACEVTHQGLSSPVTKSFNRGEC | 2.74 nM

Second part, the binder after the results:

Kd | Binder
3.03 nM | H31/L10 (antibody, human IgG1, kappa) heavy: not shown light: DVVMTQSPLSLPVTLGQPASISCRSSQNIVHTNGNTYLEWYQQKPGKAPELLIYKVSNRFSGVPDRFSGSGSGTDFTLKISRVEAEDVGVYYCFQGSHIPFTFGQGTKVEIERTVAAPSVFIFPPSDEQLKSGTASVVCLLNNFYPREAKVQWKVDNALQSGNSQESVTEQDSKDSTYSLSSTLTLSKADYEKHKVYACEVTHQGLSSPVTKSFNRGEC
2.03 nM | H36/L1 (antibody, human IgG1, kappa) heavy: not shown light: DVVMTQSPLSLPVTLGQPASISCQSSQNIVHTNGNTYLEWYQQKPGKAPELLIYKVSNRFSGVPDRFSGSGSGTDFTLKISRVEAEDVGVYYCFQGSHIPFTFGQGTKLEIKRTVAAPSVFIFPPSDEQLKSGTASVVCLLNNFYPREAKVQWKVDNALQSGNSQESVTEQDSKDSTYSLSSTLTLSKADYEKHKVYACEVTHQGLSSPVTKSFNRGEC
1.87 nM | H36/L10 (antibody, human IgG1, kappa) heavy: not shown light: DVVMTQSPLSLPVTLGQPASISCRSSQNIVHTNGNTYLEWYQQKPGKAPELLIYKVSNRFSGVPDRFSGSGSGTDFTLKISRVEAEDVGVYYCFQGSHIPFTFGQGTKVEIERTVAAPSVFIFPPSDEQLKSGTASVVCLLNNFYPREAKVQWKVDNALQSGNSQESVTEQDSKDSTYSLSSTLTLSKADYEKHKVYACEVTHQGLSSPVTKSFNRGEC
3.14 nM | H31/L12 (antibody, human IgG1, kappa) heavy: not shown light: DVVMTQSPLSLPVTLGQPASISCQSSQNIVHTNGNTYLEWYQQKPGEAPELLIYKVSNRFSGVPDRFSGSGSGTDFTLKISRVEAEDVGVYYCFQGSHIPFTFGQGTKVEIERTVAAPSVFIFPPSDEQLKSGTASVVCLLNNFYPREAKVQWKVDNALQSGNSQESVTEQDSKDSTYSLSSTLTLSKADYEKHKVYACEVTHQGLSSPVTKSFNRGEC
3.05 nM | H31/L11 (antibody, human IgG1, kappa) heavy: not shown light: DVVMTQSPLSLPVTLGQPASISCQSSQNIVHTNGNTYLEWYQQKPGKAPELLIYKVSNRFSGVPDRFSGSGSGTDFTLKISRVEAEDVGVYYCFQGSHIPFTFGQGTKVEIERTVAAPSVFIFPPSDEQLKSGTASVVCLLNNFYPREAKVQWKVDNALQSGNSQESVTEQDSKDSTYSLSSTLTLSKADYEKHKVYACEVTHQGLSSPVTKSFNRGEC
1.96 nM | H36/L0 (antibody, human IgG1, kappa) heavy: not shown light: DVVMTQSPLSLPVTLGQPASISCRSSQNIVHTNGNTYLEWYQQKPGKAPELLIYKVSNRFSGVPDRFSGSGSGTDFTLKISRVEAEDVGVYYCFQGSHIPFTFGQGTKLEIKRTVAAPSVFIFPPSDEQLKSGTASVVCLLNNFYPREAKVQWKVDNALQSGNSQESVTEQDSKDSTYSLSSTLTLSKADYEKHKVYACEVTHQGLSSPVTKSFNRGEC
